Substitutions are numbered along the chain they refer to. Numbers in names are those of the source.
B1: Aspergillus awamori glucoamylase, wild type (unmutated, expressed in Saccharomyces cerevisiae) (Aspergillus awamori) (protein)
chain: ATLDSWLSNEATVARTAILNNIGADGAWVSGADSGIVVASPSTDNPDYFYTWTRDSGLVLKTLVDLFRNGDTSLLSTIENYISAQAIVQGISNPSGDLSSGAGLGEPKFNVDETAYTGSWGRPQRDGPALRATAMIGFGQWLLDNGYTSTATDIVWPLVRNDLSYVAQYWNQTGYDLWEEVNGSSFFTIAVQHRALVEGSAFATAVGSSCSWCDSQAPEILCYLQSFWTGSFILANFDSSRSGKDANTLLGSIHTFDPEAACDDSTFQPCSPRALANHKEVVDSFRSIYTLNDGLSDSEAVAVGRYPEDTYYNGNPWFLCTLAAAEQLYDALYQWDKQGSLEVTDVSLDFFKALYSDAATGTYSSSSSTYSSIVDAVKTFADGFVSIVETHAASNGSMSEQYDKSDGEQLSARDLTWSYAALLTANNRRNSVVPASWGETSASSVPGTCAATSAIGTYSSVTVTSWPSIVATGGTTTTATPTGSGSVTSTSKTTATASKTSTSTSSTSCTTPTAVAVTFDLTATTTYGENIYLVGSISQLGDWETSDGIALSADKYTSSDPLWYVTVTLPAGESFEYKFIRIESDDSVEWESDPNREYTVPQACGTSTATVTDTWR
B2: Aspergillus awamori glucoamylase variant Leu177→His (Aspergillus awamori; L201H) (protein)
chain: B1 chain with L177H
B3: Aspergillus awamori glucoamylase variant Trp178→Arg (Aspergillus awamori; W202R) (protein)
chain: B1 chain with W178R
B4: Aspergillus awamori glucoamylase variant Asn182→Ala (Aspergillus awamori; N206A) (protein)
chain: B1 chain with N182A
B5: Aspergillus awamori glucoamylase variant Ser119→Tyr (Ser→Tyr119, S→Y119) (Aspergillus awamori; S143Y) (protein)
chain: B1 chain with S119Y
B6: Aspergillus awamori glucoamylase variant Gly183→Lys (Gly→Lys183, G→K183) (Aspergillus awamori; G207K) (protein)
chain: B1 chain with G183K
B7: Aspergillus awamori glucoamylase variant Ser184→His (Ser→His184, S→H184) (Aspergillus awamori; S208H) (protein)
chain: B1 chain with S184H

Assays:
Experiment in all cases: purified protein, by the assay type
[1] = substrate: OC[C@H]1O[C@H](O[C@H]2[C@H](O)[C@@H](O)[C@H](O)O[C@@H]2CO)[C@H](O)[C@@H](O)[C@@H]1O
[2] = substrate: OC[C@H]1O[C@H](OC[C@H]2OC(O)[C@H](O)[C@@H](O)[C@@H]2O)[C@H](O)[C@@H](O)[C@@H]1O
[3] = substrate: OC[C@H]1O[C@H](O[C@H]2[C@H](O)[C@@H](O)[C@@H](O[C@H]3[C@H](O)[C@@H](O)[C@@H](O[C@H]4[C@H](O)[C@@H](O)[C@@H](O[C@H]5[C@H](O)[C@@H](O)[C@@H](O[C@H]6[C@H](O)[C@@H](O)[C@@H](O[C@H]7[C@H](O)[C@@H](O)C(O)O[C@@H]7CO)O[C@@H]6CO)O[C@@H]5CO)O[C@@H]4CO)O[C@@H]3CO)O[C@@H]2CO)[C@H](O)[C@@H](O)[C@@H]1O
[4] = other: 45 C., pH 4.5, 0.05M sodium acetate buffer, pH 4.5, 45.0 °C
[5] = other: pH 4.4 and 50° C., pH 4.4, 50.0 °C
[6] = other: 45 C., pH 4.5, 0.05M sodium acetate buffer

| Protein | Km ([1]; other: pH 4.4 and 50° C.) [µM] | kcat ([1]; other: pH 4.4 and 50° C.) [s⁻¹] | kcat/Km ([1]; other: pH 4.4 and 50° C.) [M⁻¹ s⁻¹] | Km ([2]; other: pH 4.4 and 50° C.) [µM] | kcat ([2]; other: pH 4.4 and 50° C.) [s⁻¹] | kcat/Km ([2]; other: pH 4.4 and 50° C.) [M⁻¹ s⁻¹] | Km ([3]; other: pH 4.4 and 50° C.) [µM] | kcat ([3]; other: pH 4.4 and 50° C.) [s⁻¹] | kcat/Km ([3]; other: pH 4.4 and 50° C.) [M⁻¹ s⁻¹] | Km [1, 6] [µM] | Km [2, 6] [µM] | Km [3, 6] [µM] | further results |
| --- | --- | --- | --- | --- | --- | --- | --- | --- | --- | --- | --- | --- | --- |
| B1 | – | – | – | – | – | – | – | – | – | – | – | – | Km [1, 4]: 1400 µM; kcat [1, 4]: 9.1 s⁻¹; Km [1, 5]: 1730 µM; kcat [1, 5]: 14.4 ± 0.5 s⁻¹; kcat/Km [1, 5]: 8300 M⁻¹ s⁻¹; Km [2, 4]: 30300 µM; kcat [2, 4]: 0.34 s⁻¹; Km [2, 5]: 36000 µM; kcat [2, 5]: 0.487 ± 0.031 s⁻¹; kcat/Km [2, 5]: 13.5 M⁻¹ s⁻¹; Km [3, 4]: 140 µM; kcat [3, 4]: 66.2 s⁻¹; Km [3, 5]: 220 µM; kcat [3, 5]: 84 ± 2 s⁻¹; kcat/Km [3, 5]: 390000 M⁻¹ s⁻¹ |
| B2 | 5300 | 2.6 ± 0.1 | 490 | 49700 | 0.0438 ± 0.0018 | 0.881 | 300 | 15.9 ± 0.8 | 53000 | – | – | – | – |
| B3 | 1520 | 1.86 ± 0.11 | 1220 | 73100 | 0.0728 ± 0.0027 | 0.997 | 260 | 16.6 ± 0.4 | 63000 | – | – | – | – |
| B4 | 1380 | 11.6 ± 0.3 | 8400 | 64300 | 0.397 ± 0.019 | 6.18 | 260 | 65 ± 4 | 250000 | – | – | – | – |
| B5 | – | – | – | – | – | – | – | – | – | 1100 | 66200 | 200 | – |
| B6 | – | – | – | – | – | – | – | – | – | 1100 | 39000 | 140 | – |
| B7 | – | – | – | – | – | – | – | – | – | 900 | 26700 | 140 | – |
